Experimental data: US20060110388A1 (APPLIED MOLECULAR EVOLUTION, published 2006)
Where “and” joins values, the source holds several entries; their conditions need not be identical. Equal values may be shown once. Blank lines part the entries; values can stand above or below the binder they belong to.

What was measured:
[1] = target: T1, β Amyloid peptide 1-40 (human, UniProt P05067 672-711); assay: KinExA, Fab, equilibration 16 h
T1 construct: domain: β Amyloid peptide 1-40; Biotinylated peptide 1-40 (Biosource) on avidin Sepharose only captured free antibody in KinExA; also called Aβ 1-40; human Aβ (1-40)
T1 sequence (P05067 672-711 limits assumed): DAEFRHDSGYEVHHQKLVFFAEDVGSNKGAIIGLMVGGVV
Experimental: (§1) Typical 1× concentrations were 10 pM of antibody active sites (0.75 ng/mL) and an upper antigen concentration of 100 pM (0.43 ng/mL). […] A KinExA™ instrument (Sapidyne) and standard KD run file were then used to determine the KD of the system. Briefly, the KinExA™ flow cell was charged with the β Amyloid peptide coated beads and washed with PBSA. For the first sample, free antibody in solution was captured by the beads washed with PBSA and detected using 1:250 Goat anti-human Cy5 (Jackson Immunochemicals) in PBSA. The flow cell was then flushed, re-charged with beads and the next sample analyzed. The process was repeated until all 12 samples were analyzed.
(§2) For KinExA™ kₒₙ and koff measurements, antigen and antibody were prepared as described above. Antigen and antibody samples at 2× active concentration were prepared in PBSA with 0.2% BSA. Samples were mixed 1:1 and the timing for the experiment started. Typical 1× concentrations were 1 nM antibody active site concentration ([…]) and 2 nM antigen (8.6 ng/mL). A KinExA™ instrument (Sapidyne) and a kineticsdirect run file were used to follow the reaction. Time for each measurement was determined using the manufacturer's instructions. Free antibody remaining in the reaction was captured using β amyloid coated beads packed into the flow cell washed with PBSA and detected at each time point using 1:250 Goat anti-human Cy5 (Jackson) in PBSA. The flow cell was then flushed and recharged with beads for the next measurement, the process continued until a complete decay curve obtained. The data was analyzed using the KinExA™ Inject software.

[2] = target: T1, β Amyloid peptide 1-40; assay: KinExA, Fab, equilibration 24 h
Experimental: (§3) Typical 1× concentrations were 10 pM of antibody active sites (0.75 ng/mL) and an upper antigen concentration of 100 pM (0.43 ng/mL). The samples were then allowed to equilibrate for 24-72 hours at room temperature. A KinExA™ instrument (Sapidyne) and standard KD run file were then used to determine the KD of the system. Briefly, the KinExA™ flow cell was charged with the β Amyloid peptide coated beads and washed with PBSA. For the first sample, free antibody in solution was captured by the beads washed with PBSA and detected using 1:250 Goat anti-human Cy5 (Jackson Immunochemicals) in PBSA. The flow cell was then flushed, re-charged with beads and the next sample analyzed. The process was repeated until all 12 samples were analyzed.
as §2

[3] = target: T1, β Amyloid peptide 1-40; assay: BIAcore; against m266
Experimental: (§4) BIAcore™ is an automated biosensor system that measures molecular interactions (Karlsson, et al. (1991) J. Immunol. Methods 145: 229-240). BIAcore™ analyses described herein were carried out at 25° C. In these experiments, antibody was immobilized at low density on a BIAcore™ CM5 or B1 chip. For the m266 antibody goat anti-mouse Fc (Jackson Immunoresearch) immobilized on CM5 in flow cell 2 was used for measuring binding constants. Goat anti-mouse was used as control antibody in flow cell 1. For the humanized antibodies, protein A or protein A/G was immobilized via amine coupling to flow cells 1 and 2 of a B1 or CM5 sensor chip.
(§5) Antibody was then captured only to flow cell 2 at desired levels (usually a 10-60 second injection of antibody) and allowed to stabilize for 5 minutes. For these experiments, a fresh aliquot of Aβ 1-40 was thawed and then diluted 1:10 in HBS-EP running buffer. The 1:10 dilution was used to make up a 200 nM Aβ solution which was serially diluted (1:2 dilutions) to a lowest concentration of 6.25 nM. Each concentration was injected over the surface for 5 minutes at a flow rate of 50 μl/min (250 μl total). The Aβ and antibody were eluted from both flow cells with a 40s injection of glycine pH 1.5. The signal is allowed to stabilize for 2 minutes before the next cycle. The data from flow cell 1 is subtracted from flow cell 2 to account for any bulk shifts due to buffer differences or non-specific binding to the sensor chip or Protein A. The various concentrations were injected randomly and each concentration was run in duplicate. Two control runs of buffer only were used to control for any dissociation of antibody from the capture surface. The data was analyzed using the Biaevalution™ software. A 1:1 model with mass transfer and a local Rmax was used as the best fit for the data.
Concentrations of human Aβ (1-40) from 200 nM to 1.6 nM in 2-fold serial dilution were used to obtain on-rate constant. The upper half of Table 6 represents determinations made with a first set of antibody preparations, while the lower half represents determinations made with a second set of antibody preparations

[4] = target: T1, β Amyloid peptide 1-40; assay: KinExA, mAb; against m266
Experimental: as §3

[5] = target: T1, β Amyloid peptide 1-40; assay: KinExA, mAb; against m266; remark: listed apart in the source
Experimental: as §2
(§6) Association rate constants (kₒₙ) of m266 and antibodies of the present invention with Aβ were determined by KinExA™, using methods as described above in Example 1. The results of two separate kₒₙ determinations by KinExA™, in which separate preparations of antibodies were used, are provided in Tables 7 and 8.

[6] = target: T1, β Amyloid peptide 1-40; assay: KinExA, mAb, single experiment
Experimental: as §3

[7] = target: T1, β Amyloid peptide 1-40; assay: KinExA, mAb, single experiment; remark: listed apart in the source
Experimental: as §2, §6

[8] = target: T1, β Amyloid peptide 1-40; assay: KinExA, mAb, single experiment; remark: listed apart in the source
Experimental: as §2, §6

[9] = target: T1, β Amyloid peptide 1-40; assay: KinExA, mAb, equilibration 24 h
Experimental: as §3, §2

[10] = target: T1, β Amyloid peptide 1-40; assay: KinExA, mAb, average of the experiments
Experimental: as §3

[11] = target: T1, β Amyloid peptide 1-40; assay: KinExA, mAb, average of the experiments; remark: listed apart in the source
Experimental: as §2, §6

[12] = target: T1, β Amyloid peptide 1-40; assay: KinExA, mAb, average of the experiments; remark: listed apart in the source
Experimental: as §2, §6

[13] = target: T1, β Amyloid peptide 1-40; assay: KinExA, mAb, single experiment, separate antigen preparation
Experimental: as §2
(§7) Association rate constants (kₒₙ) of m266 and antibodies of the present invention with Aβ were determined by KinExA™, using methods as described above in Example 1. […]
(§8) ^aNumbers in bold are the averages calculated from individual experiments. ^bA separate preparation of antibodies was used for these experiments. ^cA separate preparation of antigen was used for these experiments.

[14] = target: T1, β Amyloid peptide 1-40; assay: KinExA, mAb, single experiment, separate antibody preparation
Experimental: as §2, §7, §8

[15] = target: T1, β Amyloid peptide 1-40; assay: BIAcore, mAb captured, Aβ 1-40 injected, first set of preparations
Experimental: as §4, §5
Concentrations of human Aβ (1-40) from 200 nM to 1.6 nM in 2-fold serial dilution were used to obtain on-rate constant. […]

[16] = target: T1, β Amyloid peptide 1-40; assay: KinExA, mAb, single experiment, separate antibody and antigen preparations
Experimental: as §2, §7, §8

[17] = target: T1, β Amyloid peptide 1-40; assay: KinExA, mAb, equilibration 16 h
Experimental: as §1, §2

Kd [1]: 138 pM
koff [1]: 4.96e-05 s⁻¹
kon [1]: 360000 M⁻¹ s⁻¹
B1: m266 Fab fragment (Fab, V domains shown)
VH: EVKLVESGGGLVQPGGSLKLSCAVSGFTFSRYSMSWVRQTPEKRLELVAQINSVGNSTYYPDTVKGRFTISRDNAEYTLSLQMSGLRSDDTATYYCASGDYWGQGTTLTVSS
VL: DVVMTQTPLSLPVSLGDQASISCRSSQSLIYSDGNAYLHWFLQKPGQSPKLLIYKVSNRFSGVPDRFSGSGSGTDFTLKISRVETEDLGVYFCSQSTHVPWTFGGGTKLEIK

Kd [2]: 1.9 pM
koff [2]: 1.6e-06 s⁻¹
kon [2]: 830000 M⁻¹ s⁻¹
B2: 1A1 Fab (Fab, V domains shown)
VH: EVQLVESGGGLVKPGGSLRLSCAASGYTFSRYSMSWVRQAPGKGLEWVGQINIRGNNTYYPDTVKGRFTISRDDSKNTLYLQMNSLKTEDTAVYYCTTGDFWGQGTLVTVSS
VL: DIVMTQTPLSLSVTPGQPASISCSSSQSLIYSDGNAYLHWYLQKPGQSPQLLIYKVSNRFSGVPDRFSGSGSGTDFTLKISRVEAEDVGVYYCTQSTHSPWTFGGGTKVEIK
notes: Fab clone

Fold Increase (kon) [3]: 3 fold
Fold increase in affinity [4]: 17 fold
Fold increase in kon [5]: 2 fold
Kd [6]: 3.2 pM and 5.7 pM
kon [7]: 580000 M⁻¹ s⁻¹ and 550000 M⁻¹ s⁻¹ and 390000 M⁻¹ s⁻¹
kon [8]: 1.06e+06 M⁻¹ s⁻¹ and 954000 M⁻¹ s⁻¹ and 912000 M⁻¹ s⁻¹ and 883000 M⁻¹ s⁻¹
Kd [9]: 1.2 pM
koff [9]: 1.1e-06 s⁻¹
kon [9]: 880000 M⁻¹ s⁻¹
Kd [10]: 4.5 pM
kon [11]: 510000 M⁻¹ s⁻¹
kon [12]: 913000 M⁻¹ s⁻¹
kon [13]: 976000 M⁻¹ s⁻¹
kon [14]: 762000 M⁻¹ s⁻¹
kon [15]: 390000 M⁻¹ s⁻¹
kon [16]: 851000 M⁻¹ s⁻¹
B3: 1A1 monoclonal antibody (IgG1) (antibody, V domains shown)
VH: EVQLVESGGGLVKPGGSLRLSCAASGYTFSRYSMSWVRQAPGKGLEWVGQINIRGNNTYYPDTVKGRFTISRDDSKNTLYLQMNSLKTEDTAVYYCTTGDFWGQGTLVTVSS
VL: DIVMTQTPLSLSVTPGQPASISCSSSQSLIYSDGNAYLHWYLQKPGQSPQLLIYKVSNRFSGVPDRFSGSGSGTDFTLKISRVEAEDVGVYYCTQSTHSPWTFGGGTKVEIK

Kd [17]: 973 pM
koff [17]: 0.000371 s⁻¹
kon [17]: 420000 M⁻¹ s⁻¹
B4: 1C5 monoclonal antibody (IgG1) (antibody, V domains shown)
VH: EVQLVESGGGLVKPGGSLRLSCAASGFTFSRYSMSWVRQAPGKGLEWVGQINSVANSTYYPDTVKGRFTISRDDSKNTLYLQMNSLKTEDTAVYYCTTGDFWGQGTLVTVSS
VL: DIVMTQTPLSLSVTPGQPASISCRSSQSLIYSDGNAYLHWYLQKPGQSPQLLIYKVSNRFSGVPDRFSGSGSGTDFTLKISRVEAEDVGVYYCSQSTHSPWTFGGGTKVEIK
